Assay results as given in patent US7128910B2, “Moraxella catarrahalis outer membrane protein-106 polypeptide, gene sequences and uses thereof” (priority 1996, dated 2006).

Test system: M. catarrhalis ATCC 49143
Assay: Proteolytic digestion of intact cells followed by hemagglutination test
Format: cell-based, Moraxella catarrhalis
Conditions: intact cells digested 1 hour at room temperature
Protocol: All proteases were obtained from Sigma Chemicals (St. Louis, Mo.). Immediately following the protease treatment, cells were washed once in PBS and resuspended in 1 ml of PBS and the hemagglutinating activity was tested. Additionally, protease-treated bacterial cells were extracted with octyl glucoside so the outer membrane proteins could be resolved to identify specific proteins that may have been digested by the proteases.

B1: proteinase K: Protease from Sigma Chemicals (protein, UniProt P06873 106-384, looked up)
Proteinase K: AAQTNAPWGLARISSTSPGTSTYYYDESAGQGSCVYVIDTGIEASHPEFEGRAQMVKTYYYSSRDGNGHGTHCAGTVGSRTYGVAKKTQLFGVKVLDDNGSGQYSTIIAGMDFVASDKNNRNCPKGVVASLSLGGGYSSSVNSAAARLQSSGVMVAVAAGNNNADARNYSPASEPSVCTVGASDRYDRRSSFSNYGSVLDIFGPGTSILSTWIGGSTRSISGTSMATPHVAGLAAYLMTLGKTTAASACRYIADTANKGDLSNIPFGTVNLLAYNNYQA
Effect of protease treatment on hemagglutination activity: destroyed the hemagglutination activity
